T1: Abp1, P15891
T1 sequence (P15891 535-592, looked up): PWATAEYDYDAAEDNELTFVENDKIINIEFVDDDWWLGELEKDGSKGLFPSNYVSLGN

T2: Bbc1, P47068
T2 sequence (P47068 1-78, looked up): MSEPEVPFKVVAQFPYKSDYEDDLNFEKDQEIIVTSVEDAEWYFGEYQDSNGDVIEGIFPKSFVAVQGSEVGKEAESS

T3: Boi1, P38041
T3 sequence (P38041 1-86, looked up): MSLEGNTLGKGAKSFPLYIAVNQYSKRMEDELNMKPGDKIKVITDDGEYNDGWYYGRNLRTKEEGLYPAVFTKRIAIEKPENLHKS

T4: Boi2, P39969
T4 sequence (P39969 32-116, looked up): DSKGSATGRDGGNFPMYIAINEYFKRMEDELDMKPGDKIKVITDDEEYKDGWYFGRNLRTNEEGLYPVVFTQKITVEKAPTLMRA

T5: Bud14, P27637
T5 sequence (P27637 247-328, looked up): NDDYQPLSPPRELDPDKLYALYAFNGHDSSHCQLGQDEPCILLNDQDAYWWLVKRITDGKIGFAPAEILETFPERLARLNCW

T6: Bzz1-1, P38822
T6 sequence (P38822 478-572, looked up): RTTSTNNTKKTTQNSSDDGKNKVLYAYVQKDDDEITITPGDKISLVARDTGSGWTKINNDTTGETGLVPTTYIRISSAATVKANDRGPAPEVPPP

T7: Bzz1-2, P38822
T7 sequence (P38822 568-633, looked up): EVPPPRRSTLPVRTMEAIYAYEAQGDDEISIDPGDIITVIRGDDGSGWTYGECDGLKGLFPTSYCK

T8: Cdc25, P04821
T8 sequence (P04821 50-136, looked up): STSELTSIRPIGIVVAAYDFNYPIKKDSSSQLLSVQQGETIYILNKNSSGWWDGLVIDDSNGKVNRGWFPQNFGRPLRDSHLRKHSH

T9: Cyk3, Q07533
T9 sequence (Q07533 1-83, looked up): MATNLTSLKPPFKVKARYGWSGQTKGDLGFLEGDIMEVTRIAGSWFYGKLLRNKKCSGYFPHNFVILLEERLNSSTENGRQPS

T10: Fus1, P11710
T10 sequence (P11710 432-512, looked up): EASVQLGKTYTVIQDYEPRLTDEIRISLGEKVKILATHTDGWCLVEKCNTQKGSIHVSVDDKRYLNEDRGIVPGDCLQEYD

T11: Hof1, Q05080
T11 sequence (Q05080 590-669, looked up): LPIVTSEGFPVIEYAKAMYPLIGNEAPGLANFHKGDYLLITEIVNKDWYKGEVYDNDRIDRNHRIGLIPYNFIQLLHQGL

T12: Hse1, P38753
T12 sequence (P38753 208-285, looked up): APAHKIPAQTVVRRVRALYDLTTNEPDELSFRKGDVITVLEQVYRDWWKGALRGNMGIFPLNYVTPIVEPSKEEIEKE

T13: Lsb1, P53281
T13 sequence (P53281 45-122, looked up): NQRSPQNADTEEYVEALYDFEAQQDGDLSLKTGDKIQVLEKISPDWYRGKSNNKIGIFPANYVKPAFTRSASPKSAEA

T14: Lsb3, P43603
T14 sequence (P43603 385-451, looked up): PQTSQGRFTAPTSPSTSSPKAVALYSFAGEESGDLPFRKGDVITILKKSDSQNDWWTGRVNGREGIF

T15: Lsb4, P32793
T15 sequence (P32793 402-468, looked up): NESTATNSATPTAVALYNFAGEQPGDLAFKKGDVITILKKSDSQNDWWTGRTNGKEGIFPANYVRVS

T16: Myo5, Q04439
T16 sequence (Q04439 1072-1160, looked up): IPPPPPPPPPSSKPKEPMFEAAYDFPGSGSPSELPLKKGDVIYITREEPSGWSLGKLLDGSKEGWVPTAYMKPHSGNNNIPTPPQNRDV

T17: Nbp2, Q12163
T17 sequence (Q12163 103-180, looked up): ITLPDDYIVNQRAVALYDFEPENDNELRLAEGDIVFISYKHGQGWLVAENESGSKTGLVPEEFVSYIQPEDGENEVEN

T18: Pex13, P80667
T18 sequence (P80667 295-386, looked up): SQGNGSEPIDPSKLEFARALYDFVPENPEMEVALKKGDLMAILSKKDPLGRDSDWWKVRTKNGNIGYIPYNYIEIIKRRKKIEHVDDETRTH

T19: Pin3, Q06449
T19 sequence (Q06449 53-122, looked up): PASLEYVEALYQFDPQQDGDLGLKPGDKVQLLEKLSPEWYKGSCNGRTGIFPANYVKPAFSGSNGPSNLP

T20: Sla1-2, P32790
T20 sequence (P32790 60-140, looked up): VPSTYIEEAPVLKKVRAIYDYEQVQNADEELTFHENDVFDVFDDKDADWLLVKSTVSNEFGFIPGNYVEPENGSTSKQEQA

T21: Sla1-3, P32790
T21 sequence (P32790 344-424, looked up): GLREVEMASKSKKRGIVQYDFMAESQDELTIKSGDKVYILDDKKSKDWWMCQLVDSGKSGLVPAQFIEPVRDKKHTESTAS


Key:
Assay in all cases: SPOT array
[1] = target: T1, Abp1, P15891; conditions: median of control spots 935
[2] = target: T2, Bbc1, P47068; conditions: median of control spots 796
[3] = target: Bem1-1, P29366; conditions: median of control spots 4282
[4] = target: Bem1-2, P29366; conditions: median of control spots 4347
[5] = target: T3, Boi1, P38041; conditions: median of control spots 1162
[6] = target: T4, Boi2, P39969; conditions: median of control spots 1161
[7] = target: T5, Bud14, P27637; conditions: median of control spots 956
[8] = target: T6, Bzz1-1, P38822; conditions: median of control spots 4446
[9] = target: T7, Bzz1-2, P38822; conditions: median of control spots 4538
[10] = target: T8, Cdc25, P04821; conditions: median of control spots 969
[11] = target: T9, Cyk3, Q07533; conditions: median of control spots 1451
[12] = target: T10, Fus1, P11710; conditions: median of control spots 1200
[13] = target: GST; conditions: median of control spots 978
[14] = target: T11, Hof1, Q05080; conditions: median of control spots 4086
[15] = target: T12, Hse1, P38753; conditions: median of control spots 1727
[16] = target: T13, Lsb1, P53281; conditions: median of control spots 388
[17] = target: T14, Lsb3, P43603; conditions: median of control spots 406
[18] = target: T15, Lsb4, P32793; conditions: median of control spots 397
[19] = target: Myo3, P36006; conditions: median of control spots 468
[20] = target: T16, Myo5, Q04439; conditions: median of control spots 471
[21] = target: T17, Nbp2, Q12163; conditions: median of control spots 357
[22] = target: T18, Pex13, P80667; conditions: median of control spots 1341
[23] = target: T19, Pin3, Q06449; conditions: median of control spots 2171
[24] = target: Rvs167, P39743; conditions: median of control spots 2707
[25] = target: Sho1, P40073; conditions: median of control spots 1148
[26] = target: T20, Sla1-2, P32790; conditions: median of control spots 712
[27] = target: T21, Sla1-3, P32790; conditions: median of control spots 5475

Chain of Bem1-1, P29366 (P29366 55-141): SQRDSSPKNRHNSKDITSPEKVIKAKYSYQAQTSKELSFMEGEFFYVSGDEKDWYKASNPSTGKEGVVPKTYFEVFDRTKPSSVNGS
Chain of Sho1, P40073 (P40073 287-367): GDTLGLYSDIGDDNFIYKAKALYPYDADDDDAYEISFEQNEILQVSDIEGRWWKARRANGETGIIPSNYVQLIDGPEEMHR
Chain of Bem1-2, P29366 (P29366 139-227): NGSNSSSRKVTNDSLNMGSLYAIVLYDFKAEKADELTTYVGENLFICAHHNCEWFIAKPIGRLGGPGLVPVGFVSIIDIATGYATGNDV
Chain of Rvs167, P39743 (P39743 419-482): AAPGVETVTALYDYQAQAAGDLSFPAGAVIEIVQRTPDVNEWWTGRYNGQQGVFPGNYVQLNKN

| SPOT intensity [1] | SPOT intensity [2] | SPOT intensity [3] | SPOT intensity [4] | SPOT intensity [5] | SPOT intensity [6] | SPOT intensity [7] | SPOT intensity [8] | SPOT intensity [9] | SPOT intensity [10] | SPOT intensity [11] | SPOT intensity [12] | SPOT intensity [13] | SPOT intensity [14] | SPOT intensity [15] | SPOT intensity [16] | SPOT intensity [17] | SPOT intensity [18] | SPOT intensity [19] | SPOT intensity [20] | Binder | other results |
| --- | --- | --- | --- | --- | --- | --- | --- | --- | --- | --- | --- | --- | --- | --- | --- | --- | --- | --- | --- | --- | --- |
| 27 | 3 | 2 | 59 | 1 | 0 | 0 | 2 | 4 | 1 | 0 | 0 | 0 | 183 | 0 | 7 | 0 | 0 | 269 | 137 | PPLPRAPPVPPATFE | SPOT intensity [21]: 2; SPOT intensity [22]: 14; SPOT intensity [23]: 0; SPOT intensity [24]: 0; SPOT intensity [25]: 9; SPOT intensity [26]: 1; SPOT intensity [27]: 1 |
| 0 | 0 | 0 | 0 | 0 | 0 | 0 | 0 | 0 | 0 | 1 | 0 | 0 | 0 | 0 | 0 | 0 | 0 | 233 | 91 | ISPPASPPPEFDFSK | SPOT intensity [21]: 0; SPOT intensity [22]: 0; SPOT intensity [23]: 0; SPOT intensity [24]: 0; SPOT intensity [25]: 0; SPOT intensity [26]: 0; SPOT intensity [27]: 0 |
| 0 | 0 | 1 | 0 | 1 | 1 | 0 | 1 | 3 | 1 | 0 | 0 | 1 | 0 | 0 | 0 | 0 | 0 | 413 | 300 | PSPSSSPPPIPKTAN | SPOT intensity [21]: 0; SPOT intensity [22]: 0; SPOT intensity [23]: 0; SPOT intensity [24]: 0; SPOT intensity [25]: 0; SPOT intensity [26]: 0; SPOT intensity [27]: 0 |
| 25 | 3 | 0 | 2 | 0 | 1 | 2 | 2 | 0 | 8 | 2 | 0 | 0 | 84 | 0 | 6 | 4 | 16 | 341 | 207 | VPPVPLPFGIPPFPM | SPOT intensity [21]: 1; SPOT intensity [22]: 129; SPOT intensity [23]: 63; SPOT intensity [24]: 0; SPOT intensity [25]: 6; SPOT intensity [26]: 1; SPOT intensity [27]: 0 |

Second part, the binder before the results:

| Binder | SPOT intensity [1] | SPOT intensity [2] | SPOT intensity [3] | SPOT intensity [4] | SPOT intensity [5] | SPOT intensity [6] | SPOT intensity [7] | SPOT intensity [8] | SPOT intensity [9] | SPOT intensity [10] | SPOT intensity [11] | SPOT intensity [12] | SPOT intensity [13] | SPOT intensity [14] | SPOT intensity [15] | SPOT intensity [16] | SPOT intensity [17] | SPOT intensity [18] | SPOT intensity [19] | SPOT intensity [20] | other results |
| --- | --- | --- | --- | --- | --- | --- | --- | --- | --- | --- | --- | --- | --- | --- | --- | --- | --- | --- | --- | --- | --- |
| VNIPSPSSSPPPIPK | 1 | 0 | 0 | 49 | 0 | 0 | 1 | 1 | 0 | 0 | 0 | 0 | 0 | 0 | 8 | 0 | 0 | 0 | 464 | 529 | SPOT intensity [21]: 2; SPOT intensity [22]: 0; SPOT intensity [23]: 0; SPOT intensity [24]: 0; SPOT intensity [25]: 0; SPOT intensity [26]: 0; SPOT intensity [27]: 3 |
| PIVPSSPAPPLPLSG | 0 | 0 | 0 | 0 | 0 | 0 | 0 | 1 | 0 | 0 | 0 | 1 | 0 | 0 | 0 | 0 | 0 | 0 | 399 | 434 | SPOT intensity [21]: 0; SPOT intensity [22]: 0; SPOT intensity [23]: 0; SPOT intensity [24]: 0; SPOT intensity [25]: 0; SPOT intensity [26]: 0; SPOT intensity [27]: 0 |
